Data from paper PMC11291303.

How the values were obtained:
[1] = molecular target: turnip mosaic virus (TuMV) isolate YC5 VPg D113G (turnip mosaic virus isolate YC5); experiment: two-hybrid
[2] = molecular target: turnip mosaic virus (TuMV) isolate YC5 VPg R118H (turnip mosaic virus isolate YC5); experiment: two-hybrid

Q: “ARM-REPEAT SU… PROTEIN (AT5G62580) (natural protein)” was tested. Which percent reduction in binding strength compared to VPg^wt [1] did it give?
A: Its percent reduction in binding strength compared to VPg^wt is 28.8%.

Q: Which percent weaker interaction than with VPg^wt [1] does the source give for “FRUCTOKINASE-LIKE 1 (FLN1) protein (natural protein)” here?
A: Its percent weaker interaction than with VPg^wt is 36.5%.

Q: And the percent weaker interaction than with VPg^wt [2]?
A: Its percent weaker interaction than with VPg^wt is 36.5%.

Q: Which percent stronger binding than VPg^wt [2] does the source give for “MITOCHONDRIAL GLYCOPROTEIN FAMILY PROTEIN (AT1G15870) (natural protein)” here?
A: The percent stronger binding than VPg^wt was 36.2%.

Q: Which percent stronger binding than VPg^wt [2] does the source give for “MYOSIN 3 (MYOS3) protein (natural protein)” here?
A: The percent stronger binding than VPg^wt was 27.5%.

Q: Which percent stronger binding than VPg^wt [2] does the source give for “PROLINE RICH MITOTIC CHECKPOINT CONTROL FACTOR (PRCC) (natural protein)” here?
A: The percent stronger binding than VPg^wt was 22.5%.

Q: For “PYRUVATE ORTHOPHOSPHATE DIKINASE (PPDK) REGULATORY PROTEIN 1 (RP1) (natural protein)”, which percent stronger binding than VPg^wt [2] is on record?
A: The percent stronger binding than VPg^wt was 47.1%.

Q: Which results are given for “ROS1-ASSOCIATED HOMEODOMAIN PROTEIN 1 (RHD1) (natural protein)”?
A: percent decrease in binding affinity compared to VPg^wt [1]: 22.6%; percent increase in binding affinity compared to VPg^wt [2]: 17.4%

Q: For “eukaryotic translation initiation factor (iso)4E (natural protein)”, which percent weaker interaction than with VPg^wt [1] is on record?
A: The percent weaker interaction than with VPg^wt was 90.5%.

Q: What about the percent weaker interaction than with VPg^wt [2] of the same substance?
A: Its percent weaker interaction than with VPg^wt is 90.5%.
